Data as given in US20210079109A1.

How the values were obtained:
human CD63 (human) [1] = target: human CD63 (human) (UniProt P08962); experiment: imaging of stained T47D cells, 10 ug/mL antibody
human CD63 (human) [2] = target: human CD63 (human) (UniProt P08962); experiment: ECL, U87MG cells; signal < 100 RLU, classed non-binder
human CD63 (human) [3] = target: human CD63 (human) (UniProt P08962); experiment: flow cytometry, HEK293 cells

Chain of human CD63 (human) (P08962 2-238 limits assumed): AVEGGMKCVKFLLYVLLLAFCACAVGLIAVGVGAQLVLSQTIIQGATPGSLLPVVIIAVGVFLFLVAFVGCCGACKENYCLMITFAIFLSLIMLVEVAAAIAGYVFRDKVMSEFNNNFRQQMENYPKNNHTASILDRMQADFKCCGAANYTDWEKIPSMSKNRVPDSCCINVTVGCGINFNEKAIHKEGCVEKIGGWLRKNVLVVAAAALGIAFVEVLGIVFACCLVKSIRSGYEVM

Total RFU at 4C (human CD63 (human) [1]) | Total RFU at 37C (2 h) (human CD63 (human) [1]) | binding ratio at 3.7 nM vs NIH3T3 (human CD63 (human) [2]) | S/N (MFI over no-antibody wells) (human CD63 (human) [3]) | Substance
-73400 RFU | 65400 RFU | – | – | mIgG2a Isotype control (antibody)
138000 RFU | -80500 RFU | 4 fold | – | Human IgG4 isotype control (antibody)
-93900 RFU | 57400 RFU | – | – | mIgG1 Isotype control (antibody)
– | – | – | 1.4 | Isotype Control 1 (antibody)
– | – | – | 1.5 | Isotype Control 2 (antibody)
